Bridge positions count the residues as written; N and C are the ends. Square brackets hold non-standard residues; d marks the D form. Trp(1-Me) = Cn1cc(C[C@H](N)C(=O)O)c2ccccc21; NMeQ = CN[C@@H](CCC(N)=O)C(=O)O; NMeD = CN[C@@H](CC(=O)O)C(=O)O; Sar = CNCC(=O)O
Experiments:
[1] = molecular target: T1, C3 purified from fresh human plasma (human, UniProt P01024 23-1663); test: ITC; peptide titrated into C3, PBS, 25 C
T1 construct: mature; Native plasma C3 is a two-chain (beta/alpha) protein made from one precursor; In the complement ELISA the C3 is the C3 of human serum; also called complement C3; C3 protein
Experimental: (§1) ITC analysis. All ITC experiments were performed with the Microcal VP-ITC calorimeter (Microcal Inc., Northampton, Mass.), using protein concentrations of 1.8-5 μM C3 in the cell and peptide concentrations of 40-100 μM of individual compstatin analogs in the syringe. All titrations were performed in PBS (10 mM phosphate buffer with 150 mM NaCl, pH 7.4) at 25° C. using multiple peptide injections of 2-7 μL each. The raw isotherms were corrected for the heats of dilution by subtracting the isotherms representing peptide injections into the buffer. The resulting isotherms were fitted to a single site of sites models using Origin 7.0 software, and the model that produced the lowest χ² value was deemed to be appropriate for the respective data set. The Gibbs free energy was calculated as ΔG=ΔH−TΔS. Each experiment was repeated at least twice.
(§2) Characterization of binding thermodynamics.

biotinylated C3b [2] = molecular target: biotinylated C3b (UniProt P01024); test: SPR on immobilised C3b; ratio relative to peptide 14
[3] = molecular target: T1, C3 purified from fresh human plasma; test: ITC with C3; relative to peptide 14
Experimental: as §1, §2

[4] = molecular target: T1, C3 purified from fresh human plasma; test: cell-based or functional assay
[5] = molecular target: T1, C3 purified from fresh human plasma; test: cell-based or functional assay; remark: listed apart in the source
biotinylated C3b [6] = molecular target: biotinylated C3b (UniProt P01024); test: SPR, Biacore 3000; biotinylated C3b on streptavidin chip, peptide injected; 1:1 fit
[7] = molecular target: T1, C3 purified from fresh human plasma; test: cell-based or functional assay; remark: listed apart in the source

T1 sequence (P01024 23-1663): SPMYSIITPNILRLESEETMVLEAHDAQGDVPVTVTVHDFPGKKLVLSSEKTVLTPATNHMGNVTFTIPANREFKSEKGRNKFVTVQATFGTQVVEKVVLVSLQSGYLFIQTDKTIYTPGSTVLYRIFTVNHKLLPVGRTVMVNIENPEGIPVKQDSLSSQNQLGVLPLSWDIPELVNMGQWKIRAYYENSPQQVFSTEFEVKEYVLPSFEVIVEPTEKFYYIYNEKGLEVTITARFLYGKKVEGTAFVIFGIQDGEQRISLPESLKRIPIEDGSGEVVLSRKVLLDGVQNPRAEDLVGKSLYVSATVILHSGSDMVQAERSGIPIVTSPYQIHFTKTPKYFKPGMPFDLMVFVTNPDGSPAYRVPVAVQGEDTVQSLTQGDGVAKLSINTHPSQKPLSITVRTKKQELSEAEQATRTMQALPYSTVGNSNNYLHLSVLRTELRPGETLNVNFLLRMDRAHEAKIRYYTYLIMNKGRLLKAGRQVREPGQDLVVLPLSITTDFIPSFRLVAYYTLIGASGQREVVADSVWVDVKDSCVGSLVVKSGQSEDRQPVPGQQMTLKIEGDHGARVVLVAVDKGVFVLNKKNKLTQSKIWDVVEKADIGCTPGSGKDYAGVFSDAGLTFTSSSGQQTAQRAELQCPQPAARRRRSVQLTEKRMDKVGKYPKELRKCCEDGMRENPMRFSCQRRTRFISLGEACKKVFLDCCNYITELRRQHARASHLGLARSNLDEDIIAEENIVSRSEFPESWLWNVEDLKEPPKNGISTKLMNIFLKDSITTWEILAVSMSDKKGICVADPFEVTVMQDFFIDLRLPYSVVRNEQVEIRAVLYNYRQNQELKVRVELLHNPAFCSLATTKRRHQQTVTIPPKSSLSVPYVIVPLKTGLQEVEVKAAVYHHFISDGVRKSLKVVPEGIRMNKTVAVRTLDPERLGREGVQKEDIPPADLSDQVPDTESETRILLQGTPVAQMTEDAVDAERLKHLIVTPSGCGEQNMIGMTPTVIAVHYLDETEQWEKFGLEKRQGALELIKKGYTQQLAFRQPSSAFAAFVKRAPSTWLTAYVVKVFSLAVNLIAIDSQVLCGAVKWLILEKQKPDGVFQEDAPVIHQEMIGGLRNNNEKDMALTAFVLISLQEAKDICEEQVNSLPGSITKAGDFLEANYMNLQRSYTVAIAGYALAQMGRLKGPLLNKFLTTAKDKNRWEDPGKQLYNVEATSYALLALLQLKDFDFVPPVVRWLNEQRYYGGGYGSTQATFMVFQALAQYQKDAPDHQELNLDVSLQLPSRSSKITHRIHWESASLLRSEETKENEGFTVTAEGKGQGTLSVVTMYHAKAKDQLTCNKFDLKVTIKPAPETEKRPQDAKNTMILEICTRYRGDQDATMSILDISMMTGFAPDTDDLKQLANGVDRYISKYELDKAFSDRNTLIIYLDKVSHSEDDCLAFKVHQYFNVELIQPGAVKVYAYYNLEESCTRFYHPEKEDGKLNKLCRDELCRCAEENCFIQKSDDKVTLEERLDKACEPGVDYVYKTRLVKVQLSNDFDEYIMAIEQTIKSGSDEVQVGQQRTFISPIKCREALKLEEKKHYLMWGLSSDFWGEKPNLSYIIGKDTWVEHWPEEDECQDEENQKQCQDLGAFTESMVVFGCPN

Binder | IC50 (CP), inhibition of classical pathway complement activation, ELISA [4] | IC50-fold change relative to peptide 1 [4] | IC50 (nM, CP), inhibition of classical pathway complement activation, ELISA, human serum [5] | IC50 fold change relative to peptide 17 [5] | Kd (biotinylated C3b [6]) | koff (biotinylated C3b [6]) | kon (biotinylated C3b [6]) | also measured
Ac-ICV[Trp(1-Me)]QDWGAHRCI-NH2 (disulfide 2-12; SMILES CC[C@H](C)[C@H](NC(=O)[C@@H]1CSSC[C@H](NC(=O)[C@@H](NC(C)=O)[C@@H](C)CC)C(=O)N[C@@H](C(C)C)C(=O)N[C@@H](Cc2cn(C)c3ccccc23)C(=O)N[C@@H](CCC(N)=O)C(=O)N[C@@H](CC(=O)O)C(=O)N[C@@H](Cc2c[nH]c3ccccc23)C(=O)NCC(=O)N[C@@H](C)C(=O)N[C@@H](Cc2c[nH]cn2)C(=O)N[C@@H](CCCNC(=N)N)C(=O)N1)C(N)=O, Peptide 14 scaffold with Gly^8, Ile^13; also called 16 (6)) [peptide 16] | – | – | – | – | – | – | – | -TΔS [1]: 5.7 kcal/mol; ΔG [1]: -10.9 kcal/mol; ΔH [1]: -16.6 kcal/mol; rKD SPR (biotinylated C3b [2]): 1.1 fold; rka (biotinylated C3b [2]): 1 fold; rkd (biotinylated C3b [2]): 1 fold; -TΔΔS [3]: -1.3 kcal/mol; rKD ITC [3]: 1.2 fold; ΔΔG [3]: -0.2 kcal/mol; ΔΔH [3]: 1 kcal/mol
Ac-ICVYQ[NMeD]WGAHRCT-NH2 (disulfide 2-12; SMILES CC[C@H](C)[C@H](NC(C)=O)C(=O)N[C@H]1CSSC[C@@H](C(=O)N[C@H](C(N)=O)[C@@H](C)O)NC(=O)[C@H](CCCNC(=N)N)NC(=O)[C@H](Cc2c[nH]cn2)NC(=O)[C@H](C)NC(=O)CNC(=O)[C@H](Cc2c[nH]c3ccccc23)NC(=O)[C@H](CC(=O)O)N(C)C(=O)[C@H](CCC(N)=O)NC(=O)[C@H](Cc2ccc(O)cc2)NC(=O)[C@H](C(C)C)NC1=O) [Ac-I[CVYQ(NMe)DWGAHRC]T-NH2] | 44000 nM | 0.06 fold | – | – | – | – | – | –
Peptide 17-ABP (propiolic acid on the N-terminus, joined by triazole to the azido-Lys of the peptide 17 chain; N-terminal acetyl; 1-methyl-Trp at 4; N-methyl-Gly (Sar) at 8; disulfide Cys2-Cys12 (cyclic); two mini-PEG-3 spacers between Ile13 and a C-terminal Lys-NH2; 2-azidoacetyl on the Lys side chain, joined by azide-alkyne cycloaddition (triazole) to the ABP) peptide: ICVWQDWGAHRCIK RLIEDICLPRWGCLWEDD | – | – | 242 nM | 0.38 fold | 32 nM | 0.0036 s⁻¹ | 100000 M⁻¹ s⁻¹ | –
Ac-ICVY[NMeQ]DWGAHRCT-NH2 (disulfide 2-12; SMILES CC[C@H](C)[C@H](NC(C)=O)C(=O)N[C@H]1CSSC[C@@H](C(=O)N[C@H](C(N)=O)[C@@H](C)O)NC(=O)[C@H](CCCNC(=N)N)NC(=O)[C@H](Cc2c[nH]cn2)NC(=O)[C@H](C)NC(=O)CNC(=O)[C@H](Cc2c[nH]c3ccccc23)NC(=O)[C@H](CC(=O)O)NC(=O)[C@H](CCC(N)=O)N(C)C(=O)[C@H](Cc2ccc(O)cc2)NC(=O)[C@H](C(C)C)NC1=O) [Ac-I[CVY(NMe)QDWGAHRC]T-NH2] | 33000 nM | 0.07 fold | – | – | – | – | – | –
Ac-ICV[Trp(1-Me)]QDW[Sar]AHRCH-NH2 (disulfide 2-12; SMILES CC[C@H](C)[C@H](NC(C)=O)C(=O)N[C@H]1CSSC[C@@H](C(=O)N[C@@H](Cc2c[nH]cn2)C(N)=O)NC(=O)[C@H](CCCNC(=N)N)NC(=O)[C@H](Cc2c[nH]cn2)NC(=O)[C@H](C)NC(=O)CN(C)C(=O)[C@H](Cc2c[nH]c3ccccc23)NC(=O)[C@H](CC(=O)O)NC(=O)[C@H](CCC(N)=O)NC(=O)[C@H](Cc2cn(C)c3ccccc23)NC(=O)[C@H](C(C)C)NC1=O) [peptide 22] | – | – | – | – | – | – | – | IC50, inhibition of classical pathway complement activation, ELISA [7]: 160 nM
ICVWQDWGAHRCIK (not fully specified; N-terminal acetyl; 1-methyl-Trp at 4; N-methyl-Gly (Sar) at 8; disulfide Cys2-Cys12 (cyclic); two mini-PEG-3 spacers between Ile13 and a C-terminal Lys-NH2; albumin-binding small molecule (ABM) on the Lys side chain) [Peptide 17-ABM] | – | – | 137 nM | 0.67 fold | 4.7 nM | 0.0056 s⁻¹ | 1.2e+06 M⁻¹ s⁻¹ | –
